Experimental data from publication PMC8405949.

Key:
[1] = target: DNA polymerase (pol) β, human wild-type full-length (1–335 aa) (human) (UniProt P06746)
[2] = target: DNA ligase IIIα, human wild-type full-length (1–922 aa) (human)
[3] = target: Aprataxin (APTX), human wild-type full-length (human) (UniProt Q7Z2E3); test: SPR; Biacore X-100, 25 °C; polβ, ligase IIIα or APTX amine-coupled on CM5; XRCC1 (wild-type or mutants) as analyte, 30 μl/min; 20 mM HEPES pH 7.4, 150 mM NaCl, 3 mM EDTA, 0.005% Surfactant P20; 1:1 (Langmuir) model
Chain of Aprataxin (APTX), human wild-type full-length (human) (Q7Z2E3 whole entry, the tested form may be a part): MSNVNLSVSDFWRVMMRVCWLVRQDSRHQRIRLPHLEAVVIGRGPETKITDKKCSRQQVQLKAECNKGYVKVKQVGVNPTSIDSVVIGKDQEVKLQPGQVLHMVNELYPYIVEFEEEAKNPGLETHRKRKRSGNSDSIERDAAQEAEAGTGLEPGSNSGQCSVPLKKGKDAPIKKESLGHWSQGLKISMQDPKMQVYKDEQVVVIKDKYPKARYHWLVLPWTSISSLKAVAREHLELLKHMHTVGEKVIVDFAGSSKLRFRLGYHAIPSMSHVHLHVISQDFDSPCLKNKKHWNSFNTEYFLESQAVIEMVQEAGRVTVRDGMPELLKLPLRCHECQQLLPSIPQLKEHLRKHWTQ

[4] = target: DNA ligase IIIα, human wild-type full-length (1–922 aa) (human); test: as above
[5] = target: DNA polymerase (pol) β, human wild-type full-length (1–335 aa) (human) (UniProt P06746); test: as above
[6] = test system: DNA ligase IIIalpha (human); test: BLI; conditions: BLI (Octet QKe): 20 mM HEPES pH 7.4, 200 mM NaCl, 0.5% BSA, 0.05% Tween 20, 20 °C, ternary complexes plus 10 mM MgCl2 and 0.1 mM dGTP or 1 mM ATP
[7] = target: DNA ligase IIIalpha;XRCC1 wild-type (human;human) (UniProt P18887); test: BLI; conditions: 10 mM Mg2+, 1 mM ATP; 1:1 ligase/XRCC1; koff 2.0e-4; BLI (Octet QKe): 20 mM HEPES pH 7.4, 200 mM NaCl, 0.5% BSA, 0.05% Tween 20, 20 °C; ternary complexes plus 10 mM MgCl2 and 0.1 mM dGTP or 1 mM ATP
[8] = target: XRCC1 R280H R280H (human) (UniProt P18887); test: BLI; conditions: BLI (Octet QKe): 20 mM HEPES pH 7.4, 200 mM NaCl, 0.5% BSA, 0.05% Tween 20, 20 °C; ternary complexes plus 10 mM MgCl2 and 0.1 mM dGTP or 1 mM ATP
[9] = target: DNA polymerase beta (human) (UniProt P06746); test: BLI; conditions: BLI (Octet QKe): 20 mM HEPES pH 7.4, 200 mM NaCl, 0.5% BSA, 0.05% Tween 20, 20 °C; ternary complexes plus 10 mM MgCl2 and 0.1 mM dGTP or 1 mM ATP
[10] = target: DNA polymerase beta;XRCC1 wild-type (human;human) (UniProt P06746+P18887); test: BLI; conditions: BLI (Octet QKe): 20 mM HEPES pH 7.4, 200 mM NaCl, 0.5% BSA, 0.05% Tween 20, 20 °C; ternary complexes plus 10 mM MgCl2 and 0.1 mM dGTP or 1 mM ATP
XRCC1 wild-type (human) = XRCC1 wild-type (human) (UniProt P18887); test: BLI; conditions: BLI (Octet QKe): 20 mM HEPES pH 7.4, 200 mM NaCl, 0.5% BSA, 0.05% Tween 20, 20 °C; ternary complexes plus 10 mM MgCl2 and 0.1 mM dGTP or 1 mM ATP
[11] = target: DNA polymerase beta (human) (UniProt P06746); test: BLI; conditions: BLI (Octet QKe): 20 mM HEPES pH 7.4, 200 mM NaCl, 0.5% BSA, 0.05% Tween 20, 20 °C; ternary complexes plus 10 mM MgCl2 and 0.1 mM dGTP or 1 mM ATP; remark: listed apart in the source

X-ray cross-complementing protein 1 (XRCC1), human wild-type full-length (1–633 aa) (from UniProt P18887 1-633) (natural protein)
amount of ligation products in the coupled assay (polβ dGTP:C insertion coupled to ligation by ligase IIIα), with against without XRCC1 [1]: 2 fold
amount of ligation products, nick sealing of nick DNA with 3′-dG:C by ligase IIIα, with against without XRCC1 [2]: 4 fold
Kd [3]: 374 nM
Kd [4]: 50.4 nM
Kd [5]: 10.2 nM

XRCC1 cancer-associated variant R399Q (from UniProt P18887 1-633) (natural protein)
Kd [5]: 5.8 nM

XRCC1 R109A mutant (from UniProt P18887 1-633) (natural protein)
Kd [5]: 170 nM

nick DNA with 3'-dG:C
Kd ([6]; 10 mM Mg2+, 1 mM ATP, no XRCC1, koff 5.0e-4): 22 nM
Kd ([6]; no ATP): 5 nM
Kd [7]: 6.5 nM
Kd [8]: 140 nM

one nucleotide gap DNA, template C
Kd [9]: 355 nM
Kd [10]: 30 nM
Kd [8]: 153 nM
Kd (XRCC1 wild-type (human)): 110 nM
Kd [11]: 5.4 nM

XRCC1 V86R mutant (from UniProt P18887 1-633) (natural protein)
Kd [5]: 284 nM
